Results: patent US10323078B2, “Isolated peptides and fragments thereof from fibrinogen for use as drugs, particularly in skin inflammatory diseases” (Universite Paris Descartes, priority 2015, dated 2019)

Columns and labels:
HDF cells = assay: TNF-α production by P. acnes-stimulated HDF (ELISA); type: cell-based, human; conditions: 0.87 to 7 μM
Experimental: (§1) For experiences of stimulation with P. acnes, cells were incubated with the P. acnes suspension adjusted at the appropriate concentration, pre-treated for 1 h at 37° C. or not with fibrinogen recombinant peptides Fg1 and Fg2 at the concentrations 0.87, 1.75, 3.5 or 7 μM for the desired period of time at 37° C. in 5% CO2.
(§2) Human IL-1ß, IL-8, IL-12, hBD-2, and TNF-α protein concentration was measured in the supernatants of stimulated cells using various ELISA Set kits (Ready-Set-Go kit from eBioscience for acne experiments, and for psoriasis experiments the Duo set IL-8 kit from R&D Systems and the BD-2 Human Development (hBD-2) from Peprotech) according to the manufacturer's instructions. We used serial dilutions of recombinant human IL-1ß, IL-8, IL-12 and TNF-α for standard curve. The optical density was determined at 450 nm at a wavelength correction of 540 nm.
(§3) To assess the efficacy of Fg1 recombinant peptide, the production of O2^∘− and H2O2 by HaCaT cells NHDK, THP-1, MRC5 and HDF stimulated by pretreated P. acnes strains 6919, RON and PIE was measured. The amount of ROS produced was compared to that produced by the stimulated cells with untreated bacteria. Production baseline was obtained by measuring ROS on unstimulated cells. The production of IL-1ß, IL-8, IL-12 and TNF-α was also measured in all conditions cited above. The measurement of the production of ROS is performed by spectrofluorimetry in the presence of specific fluorochromes directly on the monolayer cell. Measurement of cytokine production was performed in parallel on the cell culture supernatant.
Two sets of experiments were implemented: 1) The cells were stimulated (18 h at 37° C.) by P. acnes strains previously pretreated with Fg1 and Fg2 peptides at the final concentrations ranging from 0.87 to 7 μM for 1 h at 37° C.; and 2) The cells were pretreated first with Fg1 and Fg2 peptides at the final concentrations ranging from 0.87 to 7 μM for 24 h at 37° C. and stimulated (18 h at 37° C.) by P. acnes strains.

ThP1 cells = assay: IL-12 production by P. acnes-stimulated ThP1 (ELISA); type: cell-based, human; conditions: P. acnes 6919, set I, bacteria first pretreated, 0.87 to 7 μM
Experimental: as §1, §2
as §3, with “The measurement of the production of ROS is performed by spectrofluorimetry in the presence of specific fluorochromes directly on the monolayer cell. Measurement of cytokine production was performed in parallel on the cell culture supernatant.” left out

B1: MKRMVSWSFHKLKTMKHLLLLLLCVFLVKSQGVNDNEEGFFSARGHRPLDKKREEAPSLRPAPPPISGGGYRARPAKAAATQKKVERKAPDAGGCLHADPDLGVLC (protein)
chain: MKRMVSWSFHKLKTMKHLLLLLLCVFLVKSQGVNDNEEGFFSARGHRPLDKKREEAPSLRPAPPPISGGGRARPAKAAATQKKVERKAPDAGGCLHADPDLGVLCMKRMVSWSFHKLKTMKHLLLLLLCVFLVKSQGVNDNEEGFFSARGHRPLDKKREEAPSLRPAPPPISGGGYRARPAKAAATQKKVERKAPDAGGCLHADPDLGVLC
modifications: GST fusion; fragment Fg1
notes: fragment of Bß chain of human fibrinogen having 106 amino acids; recombinant GST-fused peptide expressed in E. coli
pos: Inhibition of Interleukine TNF alpha (TNF-α) production (HDF cells; P. acnes 6919, set I, bacteria first pretreated) | Inhibition of Interleukine TNF alpha (TNF-α) production (HDF cells; P. acnes 6919, set II, cells first pretreated) | Inhibition of Interleukine TNF alpha (TNF-α) production (HDF cells; P. acnes PIE, set I, bacteria first pretreated) | Inhibition of Interleukine TNF alpha (TNF-α) production (HDF cells; P. acnes PIE, set II, cells first pretreated) | Inhibition of Interleukine TNF alpha (TNF-α) production (HDF cells; P. acnes RON, set I, bacteria first pretreated) | Inhibition of Interleukine TNF alpha (TNF-α) production (HDF cells; P. acnes RON, set II, cells first pretreated) | Inhibition of Interleukine 12 (IL-12) production (ThP1 cells)
